In experiment [1] the target is T1, IL23R_huFC (human, UniProt Q5VWK5 24-353).
T1 sequence (looked up): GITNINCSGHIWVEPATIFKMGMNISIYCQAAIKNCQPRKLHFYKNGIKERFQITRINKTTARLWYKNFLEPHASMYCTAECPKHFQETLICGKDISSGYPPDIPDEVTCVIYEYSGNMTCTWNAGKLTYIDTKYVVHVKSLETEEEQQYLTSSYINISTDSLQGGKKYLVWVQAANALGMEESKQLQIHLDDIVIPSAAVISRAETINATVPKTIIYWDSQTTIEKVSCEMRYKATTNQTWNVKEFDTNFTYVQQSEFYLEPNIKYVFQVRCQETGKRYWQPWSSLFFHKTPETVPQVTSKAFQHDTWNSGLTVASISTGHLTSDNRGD
Briefly: IL23-IL23R competitive ELISA, IC50 grade.

For experiment [2], the target named is Rat IL-23R_huFC (rat). The experiment is described as follows: rat ELISA vs IL-23.
Experiment [3] deals with T2, IL23R_huFC (human, UniProt Q5VWK5 24-353).
T2 sequence (looked up): T1 sequence (looked up)
The experiment is described as follows: human ELISA vs IL-23.

The target in experiment [4] is T3, IL-23R on human cells (IL-23R-expressing DB cells; human NK cells) (human, UniProt Q5VWK5 24-629).
T3 sequence (looked up): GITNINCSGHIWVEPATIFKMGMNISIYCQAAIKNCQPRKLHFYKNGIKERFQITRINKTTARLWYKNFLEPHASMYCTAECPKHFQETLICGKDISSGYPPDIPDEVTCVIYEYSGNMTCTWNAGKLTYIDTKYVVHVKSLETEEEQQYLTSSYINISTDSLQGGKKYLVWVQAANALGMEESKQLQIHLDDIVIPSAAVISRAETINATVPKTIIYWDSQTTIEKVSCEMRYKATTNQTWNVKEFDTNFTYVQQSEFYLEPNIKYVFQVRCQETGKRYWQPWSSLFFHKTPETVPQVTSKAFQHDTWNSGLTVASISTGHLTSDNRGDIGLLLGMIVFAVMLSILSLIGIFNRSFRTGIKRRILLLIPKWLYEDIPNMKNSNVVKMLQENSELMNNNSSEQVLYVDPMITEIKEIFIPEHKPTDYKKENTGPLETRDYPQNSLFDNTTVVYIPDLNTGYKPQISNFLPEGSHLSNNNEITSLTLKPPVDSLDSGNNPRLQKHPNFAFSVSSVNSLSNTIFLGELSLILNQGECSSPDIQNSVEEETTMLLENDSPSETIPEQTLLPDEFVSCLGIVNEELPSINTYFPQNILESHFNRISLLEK
Briefly: cell-based or functional assay.

For experiment [5], the target named is T4, Rat IL-23R_huFC (rat; human, UniProt F1LX96 39-369).
T4 sequence: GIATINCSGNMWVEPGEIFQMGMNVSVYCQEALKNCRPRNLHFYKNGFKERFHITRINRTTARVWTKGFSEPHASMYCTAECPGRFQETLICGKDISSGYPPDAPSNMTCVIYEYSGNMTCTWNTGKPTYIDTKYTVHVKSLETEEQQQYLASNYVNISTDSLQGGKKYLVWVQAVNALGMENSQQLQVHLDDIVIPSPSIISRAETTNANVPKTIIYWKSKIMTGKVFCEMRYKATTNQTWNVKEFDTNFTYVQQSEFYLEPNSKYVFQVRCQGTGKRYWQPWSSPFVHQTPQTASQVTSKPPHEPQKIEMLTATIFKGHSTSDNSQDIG
The experiment is described as follows: rat IL-23R competitive ELISA. In general terms: ELISA stands for enzyme-linked immunosorbent assay.

For experiment [6], the target named is T3, IL-23R on human cells …. The experiment is described as follows: cell-based or functional assay. The source holds these as a separate data set.
The target in experiment [7] is Rat IL-23R_huFC (rat). The experiment is described as follows: rat ELISA vs IL-23. The source holds these as a separate data set.
In experiment [8] the target is Rat IL-23R_huFC (rat). Briefly: IL-23/IL-23R competitive binding ELISA, rat.
In experiment [9] the target is T5, Cyno IL-23R_huFC (cyno, UniProt G7NWY5 24-353).
T5 sequence: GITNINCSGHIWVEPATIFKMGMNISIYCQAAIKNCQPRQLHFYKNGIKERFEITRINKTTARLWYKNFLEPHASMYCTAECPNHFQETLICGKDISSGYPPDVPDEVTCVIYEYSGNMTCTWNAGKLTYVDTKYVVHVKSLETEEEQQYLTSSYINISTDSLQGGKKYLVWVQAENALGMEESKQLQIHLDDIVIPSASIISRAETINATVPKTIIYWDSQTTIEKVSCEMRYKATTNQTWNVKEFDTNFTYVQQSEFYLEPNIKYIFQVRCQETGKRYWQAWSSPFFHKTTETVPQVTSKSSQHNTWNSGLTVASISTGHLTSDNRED
Briefly: IL-23/IL-23R competitive binding ELISA, cyno.

Experiment [10] addresses T6, Recombinant human IL-23R_huFC (RnD) (human, UniProt Q5VWK5 24-353).
T6 sequence (looked up): T1 sequence (looked up)
Briefly: IL-23/IL-23R competitive binding ELISA, human.

Experiment [11] has as its target recombinant human IL-12Rβ1_huFC (RnD) (human, UniProt P42701 24-540). Briefly: SPR, IL-12Rb1_huFC captured on anti-human IgG, IL-23 as analyte. (In general: In SPR one partner is held on a chip, and binding of the other changes the refractive index at the surface.)
The target in experiment [12] is IL-12Rb1_huFC/IL-23R_huFC (human, UniProt P42701 24-540; Q5VWK5 24-353). Briefly: SPR, mixed IL-12Rb1_huFC/IL-23R_huFC surface, IL-23 as analyte.
Experiment [13] concerns the target T2, IL23R_huFC. Briefly: human ELISA vs IL-23. This is another data set of the same source.

Bridges are numbered along the chain shown (N, C = ends). Where no end group is shown, it is not given here. [ ]: non-standard residue; d: D form. AllylGly = C=CC[C@H](N)C(=O)O; DIG = diglycolic acid linker; AEA = NCCOCC(=O)O; βAla = NCCC(=O)O

H-FPTWEWYWCNRD-NH2 (also: oxidized dimer via intermolecular Cys9-Cys9 disulfide) [(Hy-FPTWEWYWCNRD-NH2)2, oxidized dimer through the cysteine] gave an IC50 in [1] of 1000 to 10000 nM.

B1: [Ac-[(D)Lys]-Cyclo-[[Abu]-QTWQC]-[Phe(4-OMe)]-[2-Nal]-[α-MeLeu]-ENG-NH2]2 DIG (peptide)
peptide: KXQTWQCFXLENG
modifications: not fully specified; as bracketed in name; thioether cyclo; DIG linker through (D)Lys
Turning to B1, the IC50 in experiment [2] is 25 to 100 nM; in experiment [3], below 10 nM. Further, the “pStat3 HTRF IC50” value in experiment [4] is below 10 nM.

Take Ac-CQTWQCYW[βAla]VFG[AEA][dK]-NH2 (disulfide 1-6 (inferred)) [Ac-CQTWQCYW-[βAla]-VFG-[AEA]-[(D)Lys]-NH2]: the concentration for half-maximal inhibition (IC50) in [5] came to 2210 nM.

B2: [Ac-Cyclo-[[Abu]-QTWQC]-[Phe(4-OMe)]-[2-Nal]-[α-MeLys+-ENG-NH2]2DIG (peptide)
peptide: XQTWQCFXKENG
modifications: not fully specified; as bracketed in name; thioether cyclo; DIG linker through a-MeLys
In the case of B2, the “NK cell assay IC50 (IFNγ)” value in experiment [6] is below 25 nM. The IC50 in [3] is below 10 nM; in experiment [7], 10 to 25 nM. The “pStat3 HTRF IC50” value in experiment [4] was below 10 nM.

B3: Peptide 993 (peptide)
peptide: RXQTWQCFXXENN
modifications: Ac-[(D)Arg]-Cyclo-[[Abu]-QTWQC]-[Phe[4-(2-aminoethoxy)]]-[2-Nal]-[4-amino-4-carboxy-tetrahydropyran]-ENN-NH2; cyclized by Abu-Cys thioether
Consider B3, for which the IC50 in [8], in experiment [9] and in experiment [10] was 2 nM in each case.

B4: [Ac-[(D)Lys]-Cyclo-[[Abu]-QTWQC]-[Phe(4-OMe)]-[2-Nal]-[α-MeLys]-ENG-NH2]2 PEG25 (peptide)
peptide: KXQTWQCFXKENG
modifications: not fully specified; as bracketed in name; thioether cyclo; PEG25 linker through α-MeLys
Consider B4, for which the IC50 in [3] was below 10 nM; in experiment [7] it was 10 to 25 nM. Also, the “pStat3 HTRF IC50” value in experiment [4] is below 10 nM.

B5: Recombinant human IL-23 (Humanzyme) (ligand)
chain 1: RAVPGGSSPAWTQCQQLSQKLCTLAWSAHPLVGHMDLREEGDEETTNDVPHIQCGDGCDPQGLRDNSQFCLQRIHQGLIFYEKLLGSDIFTGEPSLLPDSPVGQLHASLLGLSQLLQPEGHHWETQQIPSLSPSQPWQRLLLRFKILRSLQAFVAVAARVFAHGAATLSP
chain 2: IWELKKDVYVVELDWYPDAPGEMVVLTCDTPEEDGITWTLDQSSEVLGSGKTLTIQVKEFGDAGQYTCHKGGEVLSHSLLLLHKKEDGIWSTDILKDQKEPKNKTFLRCEAKNYSGRFTCWWLTTISTDLTFSVKSSRGSSDPQGVTCGAATLSAERVRGDNKEYEYSVECQEDSACPAAEESLPIEVMVDAVHKLKYENYTSSFFIRDIIKPDPPKNLQLKPLKNSRQVEVSWEYPDTWSTPHSYFSLTFCVQVQGKSKREKKDRVFTDKTSATVICRKNASISVRAQDRYYSSSWSEWASVPCS
Consider B5, for which, in [11], the Kd came out at 0.87 nM, the koff is 0.000438 s⁻¹ and the kon came out at 501000 M⁻¹ s⁻¹. In [12], the Kd was 0.18 nM, the koff amounted to 0.000115 s⁻¹ and the kon was 631000 M⁻¹ s⁻¹.

With CQTWQCYWRXNGXK (Ac-; [Aib]; [AEA]; [(D)Lys]; -NH2) [Ac-CQTWQCYWR-[Aib]-NG-[AEA]-[(D)Lys]-NH2], in [5], the IC50 is 1060 nM.

In [13], [AllylGly]ADWV[AllylGly]YWHTFG (staple 1-6 (inferred)) [SEQ ID NO. 1001 peptide (drawing CHEM-US-00115)] yielded an IC50 of around 30000 nM.

With Ac-CADWVCYWHTK(DIG)G-OH (cysteine pairing not given here; also: dimer through DIG on Lys) [(Ac-CADWVCYWHTKG-OH)2DIG], the IC50 in experiment [1] is 1000 to 10000 nM.

As a reminder, the IC50 is the concentration that inhibits the measured activity by half. By Kd is commonly meant the equilibrium constant for the complex coming apart. One may read the koff as the first-order rate constant of dissociation. A word on the kon: it is the second-order rate constant of association.
